Consider 9 molecules from US20220089784A1 (University of California, published 2022).

One experiment concerns the target T1, BoNT/D (Clostridium botulinum, UniProt P19321 2-1276).
T1 sequence: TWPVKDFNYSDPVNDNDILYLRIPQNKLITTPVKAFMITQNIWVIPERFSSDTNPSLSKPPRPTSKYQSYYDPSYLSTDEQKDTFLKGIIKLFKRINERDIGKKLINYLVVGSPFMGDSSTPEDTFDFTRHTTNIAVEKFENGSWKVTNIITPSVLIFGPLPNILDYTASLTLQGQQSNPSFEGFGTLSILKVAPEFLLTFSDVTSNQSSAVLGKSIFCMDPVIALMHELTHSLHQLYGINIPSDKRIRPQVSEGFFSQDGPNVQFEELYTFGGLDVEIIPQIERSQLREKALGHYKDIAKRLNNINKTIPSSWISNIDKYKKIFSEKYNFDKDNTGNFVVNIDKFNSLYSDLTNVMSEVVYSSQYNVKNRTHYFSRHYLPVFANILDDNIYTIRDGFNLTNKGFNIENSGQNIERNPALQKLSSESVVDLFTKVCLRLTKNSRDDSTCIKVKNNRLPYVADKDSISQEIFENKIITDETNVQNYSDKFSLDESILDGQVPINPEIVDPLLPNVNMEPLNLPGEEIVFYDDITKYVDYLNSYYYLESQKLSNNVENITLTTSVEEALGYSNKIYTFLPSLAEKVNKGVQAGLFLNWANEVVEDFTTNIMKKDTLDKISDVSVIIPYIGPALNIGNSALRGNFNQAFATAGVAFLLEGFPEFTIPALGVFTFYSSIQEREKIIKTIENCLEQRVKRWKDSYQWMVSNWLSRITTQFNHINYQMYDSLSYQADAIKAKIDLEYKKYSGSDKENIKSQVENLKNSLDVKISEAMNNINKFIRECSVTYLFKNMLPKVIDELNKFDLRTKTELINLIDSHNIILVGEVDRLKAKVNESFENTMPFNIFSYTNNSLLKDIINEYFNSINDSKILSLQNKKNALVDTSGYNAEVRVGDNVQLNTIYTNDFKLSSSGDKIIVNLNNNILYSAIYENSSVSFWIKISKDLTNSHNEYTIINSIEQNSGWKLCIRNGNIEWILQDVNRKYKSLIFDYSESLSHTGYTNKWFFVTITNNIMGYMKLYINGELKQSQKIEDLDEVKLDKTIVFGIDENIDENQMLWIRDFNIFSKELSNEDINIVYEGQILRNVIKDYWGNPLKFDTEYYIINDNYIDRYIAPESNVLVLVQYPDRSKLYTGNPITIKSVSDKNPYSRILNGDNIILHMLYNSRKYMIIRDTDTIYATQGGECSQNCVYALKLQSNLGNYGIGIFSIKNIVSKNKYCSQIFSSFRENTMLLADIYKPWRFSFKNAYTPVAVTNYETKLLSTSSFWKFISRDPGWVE
Briefly: yeast scFv FACS.

In another experiment the target is T2, BoNT/C1 holotoxin (Clostridium botulinum, UniProt P18640 2-1291).
T2 sequence: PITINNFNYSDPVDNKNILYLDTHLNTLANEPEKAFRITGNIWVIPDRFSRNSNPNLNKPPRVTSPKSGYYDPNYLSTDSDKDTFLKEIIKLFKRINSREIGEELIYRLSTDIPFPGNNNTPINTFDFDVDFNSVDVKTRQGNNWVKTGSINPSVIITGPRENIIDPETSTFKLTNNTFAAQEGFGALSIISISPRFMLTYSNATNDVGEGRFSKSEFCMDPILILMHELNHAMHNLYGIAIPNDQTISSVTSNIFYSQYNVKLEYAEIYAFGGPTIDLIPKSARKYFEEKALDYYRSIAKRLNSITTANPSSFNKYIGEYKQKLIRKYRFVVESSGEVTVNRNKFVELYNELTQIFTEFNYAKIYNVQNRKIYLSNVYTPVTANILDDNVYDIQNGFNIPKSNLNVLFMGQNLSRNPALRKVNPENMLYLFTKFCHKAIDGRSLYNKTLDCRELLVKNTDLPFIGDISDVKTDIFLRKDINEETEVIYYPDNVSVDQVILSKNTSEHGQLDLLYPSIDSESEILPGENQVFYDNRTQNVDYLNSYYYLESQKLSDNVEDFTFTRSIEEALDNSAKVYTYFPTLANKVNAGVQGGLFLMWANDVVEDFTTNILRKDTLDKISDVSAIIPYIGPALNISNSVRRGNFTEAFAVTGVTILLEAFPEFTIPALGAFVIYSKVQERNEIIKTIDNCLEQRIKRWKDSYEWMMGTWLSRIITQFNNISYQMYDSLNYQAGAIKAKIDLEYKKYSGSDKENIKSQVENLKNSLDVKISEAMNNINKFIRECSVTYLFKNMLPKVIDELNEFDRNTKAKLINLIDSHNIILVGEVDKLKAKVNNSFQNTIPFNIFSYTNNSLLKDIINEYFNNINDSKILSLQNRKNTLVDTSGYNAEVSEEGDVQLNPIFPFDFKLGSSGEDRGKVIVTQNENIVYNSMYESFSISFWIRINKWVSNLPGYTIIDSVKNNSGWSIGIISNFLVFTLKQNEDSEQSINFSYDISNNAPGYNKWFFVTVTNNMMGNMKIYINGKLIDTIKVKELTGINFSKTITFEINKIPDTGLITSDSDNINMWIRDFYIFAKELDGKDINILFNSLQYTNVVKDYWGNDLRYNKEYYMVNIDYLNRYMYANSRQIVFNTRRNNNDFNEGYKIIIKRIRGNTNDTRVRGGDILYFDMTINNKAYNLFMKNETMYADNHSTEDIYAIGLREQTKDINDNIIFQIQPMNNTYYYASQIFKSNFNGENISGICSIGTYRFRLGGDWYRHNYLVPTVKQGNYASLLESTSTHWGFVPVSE
In words: yeast scFv FACS.

In experiment [1] the target is T3, BoNT/F1 (proteolytic BoNT/F) (Clostridium botulinum, UniProt A7GBG3 1-1278).
T3 sequence: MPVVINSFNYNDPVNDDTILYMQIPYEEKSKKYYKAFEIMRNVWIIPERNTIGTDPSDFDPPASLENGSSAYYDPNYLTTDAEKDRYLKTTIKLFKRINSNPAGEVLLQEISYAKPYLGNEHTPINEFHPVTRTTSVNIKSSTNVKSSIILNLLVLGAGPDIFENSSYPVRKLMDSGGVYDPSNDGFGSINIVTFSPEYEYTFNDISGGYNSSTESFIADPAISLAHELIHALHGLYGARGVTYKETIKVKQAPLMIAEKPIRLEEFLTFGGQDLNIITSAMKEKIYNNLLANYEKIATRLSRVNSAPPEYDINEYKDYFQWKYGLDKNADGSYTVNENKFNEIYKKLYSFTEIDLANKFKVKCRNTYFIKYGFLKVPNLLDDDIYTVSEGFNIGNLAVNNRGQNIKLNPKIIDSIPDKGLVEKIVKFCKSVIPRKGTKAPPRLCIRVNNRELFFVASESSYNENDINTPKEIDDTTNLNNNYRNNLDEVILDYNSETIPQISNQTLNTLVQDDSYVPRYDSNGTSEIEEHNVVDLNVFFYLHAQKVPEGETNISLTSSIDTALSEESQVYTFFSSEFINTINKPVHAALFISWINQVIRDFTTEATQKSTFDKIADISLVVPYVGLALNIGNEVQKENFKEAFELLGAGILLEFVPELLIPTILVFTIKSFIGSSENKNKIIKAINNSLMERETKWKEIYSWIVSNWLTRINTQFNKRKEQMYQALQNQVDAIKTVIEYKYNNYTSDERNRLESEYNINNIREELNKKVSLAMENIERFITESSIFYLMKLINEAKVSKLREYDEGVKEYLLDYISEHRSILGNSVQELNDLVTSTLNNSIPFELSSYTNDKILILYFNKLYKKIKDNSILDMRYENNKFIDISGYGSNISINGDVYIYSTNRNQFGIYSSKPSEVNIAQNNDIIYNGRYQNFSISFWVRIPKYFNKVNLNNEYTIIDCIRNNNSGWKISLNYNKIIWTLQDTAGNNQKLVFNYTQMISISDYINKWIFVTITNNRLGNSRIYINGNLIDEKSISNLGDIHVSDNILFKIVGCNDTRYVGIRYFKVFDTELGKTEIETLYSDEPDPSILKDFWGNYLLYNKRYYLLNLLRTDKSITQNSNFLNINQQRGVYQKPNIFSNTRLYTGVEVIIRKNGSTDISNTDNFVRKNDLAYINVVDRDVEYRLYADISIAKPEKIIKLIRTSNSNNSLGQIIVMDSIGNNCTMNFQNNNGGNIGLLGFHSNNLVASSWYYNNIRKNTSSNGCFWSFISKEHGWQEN
In words: IgG.

B1: 4C5 scFv (scFv, V domains shown)
VH: QVQLVQSGADVKKPGASVRVSCKASGYTISTYAMSWVRQAPGQGLEWMGWISGYNGNTNYAQEFQGRVTMTRDTSTNTAYMELRSLRSDDTAFYYCARVKLTTMVRGGPFDYWGQGTLVTVSS
VL: EIVLTQSPSSLSATVGDRVTITCRASQGIRNDLVWYQQKPGKAPKRLTYAASSLLSGVPSRFSGSGSGTDFTLTISSLQPEDFATYYCQQYNSYPPTFGGGTKLEIK
notes: human
On to B1, for which the binding result in the experiment with BoNT/D is “no binding (tested: ~1 µM)”. Besides, the Kd (in general, the free concentration of one partner at which half of the binding sites on the other are occupied at equilibrium, for simple one-to-one binding) in the experiment with BoNT/C1 holotoxin worked out at 0.143 nM.

B2: 6F10 IgG (antibody, V domains shown)
VH: EVQLQESGGDLVKPGGSLKLSCAASGFTFSYYGMSWVRQTPDKRLEWVATISSGGTYTYYPDSVKGRFTISRDNAKNTLYLQMSSLSSEDTAMYYCARRRSYDSVYWYFDVWGAGTSVTVSS
VL: DIVLTQSPAITAASLGQKVTITCSASSSGSYIHWYQQKSGTSPKLLIYRTSNLASGVPSRFSGSGSGTFYSLTISSVEAEDAADYFCHQWSSYPTFGGGTKLEIK
notes: IgG from scFv V genes
B2 showed a Kd in experiment [1] of 0.07 nM.

B3: 4C1 scFv (scFv, V domains shown)
VH: QVQLQESGPGLVKPSQTLSLTCAVSGGSINSGDYYWTWIRQHPGKGLEWIGNIYYTGRTYYNPSLQSRLTMSVDTSRTHFSLKLSAVTAADTAVYYCARGQDTSMVTRNFYYGLDVWGQGTTVTVSS
VL: DIVMTQSPSFVSASVGDRVTITCRASQGISSYLAWYQQKPGKAPKLLIYAASTLQSGVPSRFSGSGSGTDFTLTISSLQPEDIATYYCQELSSYPLTFGGGTKLEIK
notes: human
On to B3, for which the binding result with BoNT/D is given as “no binding (tested: ~1 µM)”. The molecule further yielded a Kd with BoNT/C1 holotoxin of 2.7 nM.

B4: 6F6 IgG (antibody, V domains shown)
VH: EVQLLESGGGLVKPGGSRKLSCEASGFTFSDYGMHWVRQAPEKGLEWVGYISSGSRIIYYADTVKGRITISRDNAKNTLFLQMTSLRSEDTAMYYCVRGTWVFDYWGQGTTLTVSS
VL: DIVMTQSPASLAVSLGQRATISCRASESVDNYGISFMNWFQQKPGQPPKLLIYAASNLESGIPARFSGSGSGTDFTLTINPVEADDVATYYCQQSNEDPYTFGGGTKLEIK
notes: IgG from scFv V genes
B4 registered a Kd in experiment [1] of 0.048 nM. In other words, the picomolar range.

B5: 6F9 IgG (antibody, V domains shown)
VH: QVQLQQPGAELVKPGASVKLSCKASGNSFASSWMHWVKQRPGQGLEWIGMIHPYSGSTNFNEKFKSKATLSVDKSSSTAYMQLSSLTSEDSAVYYCAMNWDWYFDVWGTGTTVTVSA
VL: DVVMTQSPKFMSTSVGDRVSITCKASQDVGTAVAWYQQKPGQSPKLLIYWASTRHTGVPDRFTGSGSGTDFTLTISDVLSEDLADYFCQQYGGYPTFGGGTKLEIK
notes: IgG from scFv V genes
Turning to B5, the affinity in experiment [1], expressed as Kd, was 0.26 nM. This Kd is about 5.4-fold higher than that of the molecule before.

B6: 4C3 scFv (scFv, V domains shown)
VH: EVQLVQSGAEVKKPGSSVKVSCKASGNSLNNYAITWVRQAPGQGLEWMGGINPLFGTANYAQKFQDRVTMTADESTNIAYLDLSSLTTADTAVYFCAVGAFTNYPFWGQGTTVTVSS
VL: SGLTQDPAVSEALGQTVRITCQGDSLRSYYASWYQQKPGQAPLLVIYAGNNRPSGIPDRFSGSSSGNTASLTITGARAEDEADYYCNSRDSSGNYLFGAGTKLTVL
notes: human
With B6, the binding result in the experiment with BoNT/D is listed as “no binding (tested: ~1 µM)”. The molecule also yielded a dissociation constant (Kd) with BoNT/C1 holotoxin of 4.7 nM.

B7: 87C78 scFv (scFv, V domains shown)
VH: QVQLQESGGGVVQPGKSLRLSCVTSTFTLGTYAMHWVRQAPGKGLQWVAVISYDGRYADYADSVKGRFNISRDNSKNTLYLQMHSLTTEDTALYYCAKAIKAFRPVPPSFHMDVWGIGTTVTVSS
VL: DIVMTQSPSSLSASVGDRVTITCRASQGISSYLAWYQQKPGKAPQLLIYKASILKSGVPSRFSGSGSGTEFTLTISSLQPEDFATYFCQQTFDTPLTFGQGTKVEIK
notes: human
As to B7, in the experiment with BoNT/D, the binding result is “no binding (tested: ~1 µM)”. In the experiment with BoNT/C1 holotoxin, binding was characterised by a dissociation constant (Kd) of 1 nM.

B8: 6F7 IgG (antibody, V domains shown)
VH: QVQLQESGPGLVKPSQTVSLTCTVAGYSITNGNHWWNWIRQVSGSKLEWIGYITSSGSTDSNPSLKSRISITRDTSKNQLFLQLNSVTTEDIATYYCARSSNYFFHVLDYWGQGTSVTVSS
VL: DIVLTQTPAIMSASPGEKVTMTCSASSSVSYMHWFQQKPGTSPKLWIYSTSNLASGVPARFSGSGSGTSYSLTISRMEAEDAATYYCQQRSSYPPTFGGGTRLEIK
notes: IgG from scFv V genes
Regarding B8, the Kd in experiment [1] came to 0.57 nM.

B9: 6F8 IgG (antibody, V domains shown)
VH: QVQLKQSGAELVKSGASVKLSCTASGFNIKDFYMHWVKQRTEQGLEWIGRIDPEDGETKYAPKFQGKATITADTSSNTAYLQLSSLTSEDTAVYYCVRDRDYDWGQGTTLTVSS
VL: not shown
notes: IgG from scFv V genes
Turning to B9, the Kd in experiment [1] turned out to be 0.22 nM. Against the preceding molecule, the Kd is about 2.6-fold lower.
